From a protein production outcome set (Wang et al. 2014)

Test: label from the status in PepcDB records

Sequence | protein production
MADKAVADRTIEGLTRAGAAMAAGEIDQAAAHLQAAAQLCPDEPMIWALLGEVLLLLDRPQDGLGALDRALALAPEDPRPRFHRARAFERLDRLAEALADQEALAILCANKAEVWHNLGLLRRAGGDPSGAEAAFGRALALEPSRAESALALAHSLLGRAAWAEGFAHYEARLSLPGWQRPAPLPGRRWRGEDPAGRTLLVSAEQGLGDGVQFLRYLPLIKGAGKVIVECHPPLRRLIAAQPGVDATIAFGEAIPDLGAEGLTIPLASLALPLAGGAPLGERIPYVSKPRLRPQGDRPRIGLAWRSSDRAELRRDPPLAALAALAAIPAVDWVSLQFAPTDYPALPLDLRPMASVDDLDDTAALIADLDLVISVDTAVAHLAGAMGKPLWVLLGPRADWRWTASAQSSPWYPSCVPFFHGAEGWPGVIAAVSERLKAAFNGPPAR | failed
MADKVYEATAEAKGYNEEGVPIVLTVKAIKKDGKVVVTDIVAKHQETDKIGAVAIEKLIEEVKTKQNYNKLDSVAGATSTSAGFRRAIRNAVKDIEKQNLEHHHHHH | not failed
MADMESLDTAEMQEAAEKQAALFPNGGKSAEPTAAKHTATGLADGNKKPPVSNSFLDKFFQISKRGSTLAREFRGGLVTFFTMAYIVILNPLILGGFSAENAPTDVAGGWLSAAQVGAVTGLTAGVMTIIFGLVANLPFGLAAGLGINSFLAVAVIQEVTWPEAMGLVVINGILIVLFGATGARTAIFKAVPKELKAAITVGIGLFIAFIGFVDSGFVRATTGGPPVQLGDNGSITSIPTLVFIVGLLTMGILVARKIQGGLLIGIVATTVLAAVVEAVFHIGPGSADNPGGWHLNVPILSSQLVSVPDLSLVGQFDLFGSFARIGGLAATMLVFTLVFTNFFDAMGTMTGLAKSAGVAHKDGTFPKLKSAFIVEGMGAVVGGATSGSSNTVYIDSAAGIGEGARTGLASVVTGLLFLGSMFFTPLTSVVPLEVAAAALVVVGAMMMAQIREIKFTKFSIALPAFLTIVTMPLTYSIANGIGVGFISFAVISAASGKAKKVHPLMWVVTAGFIIYFARGPINALMGV | failed
MADNSATRVRVPSDRNSRRKIKGEVDIISSLPDVILQHILFSFQTKYAIRTSVLSKRWRHEADAINKALSQYTAPKMMNFHLKINKNNSLHHIKKWTEFAMSRNVENMSLDVRFRSNKIPRFYEINSSVKSLSHRLDLHDVIPRHGVSWTSLKKFSLSYCGLPDESAKILSGCPILEWPMQIVAPQIHCLKLRNTQLPCTLVDVSSLTEAEVLDIIIFPVNLSYNADFLHATMLEMLKKLKNVEKLTFSGSYLQNLSVAEKRGVPFPMFKVKALTLEMKHFVISDIERMLQSSPNLKKLTVRAKDNTGKYLYRYFARLESGSMLELKKGV | failed
MADPIRIFIGSGEASRIERQVAIDSLQRMTDRPLAITAFNGTHNALEVLGEPPRPAPMSLRVKYWNATEFSLYRFLIPELCGYQGRAIYIDSDVVCLHDIGELFDTDLEGADFLAKAEAYPDRAGALWGLSVVLFDCDRCRFPLEQFIDELEAGVYDYRDLPCMGPRFLNKRPYQIGALDPRWNSFDFADRETRLIHYTDLKRQPWKRPGHPYGDLWFKAMQQALDSGILTDTEISQAIKRFNVRDDIREGNRPRWLTRQRLRSWLRQVKQQLRPVKV | failed
MADQLIEEVKQLIIDALRIEGMTPAEIDTDAPLFGEGLGLDSIDALQLVVAMEKQYGVVVPDAATGTKVFQSVRTVADFVAENRKLEHHHHHH | failed
MADRVIRADAKGVMRVEDGQAYNEAGQRLDDHALIPPEDANEDQARLNAQLAARDAAGLIVDLHNRGIDRHLWEQNEDAIGVERHNRGVDRHQPQIPAAIPLAAEPRRTLGDFNRPGMFYANRSAIVPPPYQRNDYESHLFYYITLHI | failed
MADTGEVQFMKPFISEKSSKSLEIPLGFNEYFPAPFPITVDLLDYSGRSWTVRMKKRGEKVFLTVGWENFVKDNNLEDGKYLQFIYDRDRTFYVIIYGHNMC | not failed
MADVEIMQTVQTEVKKTTKKVKKSSKRRESEVQISEVEVDATIEERGGEYTKAMDKDWHSGHFCCWQCDESLTGQRYVIRDDHPYCIKCYENVFANTCEECNKIIGIDSKDLSYKDKHWHEACFLCFKCHLSLVDKQFGAKADKIYCGNCYDAQFASRCDGCGEVFRAGTKKMEYKTRQWHENCFCCCVCKTAIGTKSFIPREQEIYCAGCYEEKFATRCIKCNKVITSGGVTYKNEPWHRECFTCTHCNITLAGQRFTSRDEKPYCAECFGELFAKRCTACVKPITGIGGTRFISFEDRHWHHDCFVCASCKASLVGRGFITDGPDILCPDCAKQKLM | failed
MADVGSLGTRLLRIVLGLCALVLVLLALYVSLGRQLVPLVAEYRQQLEDEAGKQLGIPVRIAELTGSWRGFEPLVVARDIQVGDGEQSLRLARVRLAPDLLGSLLARQVRIGSLELEGLKLTLREGEDGQWSLDGLPHSDKPSDPRKLLQFLLQTQRISLLDSQLEVAPRGSAALSLSAVGATLRSSSVGGQSLDARLQLPDGQPLALHAEGRIDSEDWPRSSARFYLSLPQSDWAQWLPAGLTQEWTIVRAKAGGDFWFDWRDGKAQRLVARLLAPQLKASYAARKPVEINDLGMNLFFDREAQGWKVRVGDLAANFGEQRWGEVELLLRRDQQNNEPHWKLQADRVDLTPLVPAIEALAPLPDAAAEWVAGLKPKGILHNLNADFWPQREVPERVSYATNLEKVGISAFHEVPAVENVSGTLTGTLAGGQLDASAQDFMLHLAKVFPEPWRYREARTRMFWSLDDRAFTLGSHLMRVEGEEGSLAGDMLIRLMRDPGAEDYMDLQVGLSDGDARFTAKYLPTQLPGMNKSLANWLKTAIRSGHVEQGYFQWQGSLNRGAAAEAHVMNLYFKVRDGELAYQPGWPALSKTVGEVFVEDSGVRVLASSGNLLNSRVSDVKVDIPLGRPGQTPHLYVDGAVDSNLKDGIKLLQEAPIPTRKIFAGWEGDGPLQGHLTLDIPLDHDEAGKTGVVVDFSTVGATLKMPSPKLDMSEVKGDFRFDLAKGLSAPAVQARVLGSEVRGRIVAEGRGDARTRLLLNGQVAVKSLSDWLGAGQRPLPVSGRLPFQLNLLLDGKDSQLQIDSDLKGAVVDLPAPFGKTAAQARPTQWRMTLDGAERRYWARYDGLASLAYAAPADKPLNGRGALRLGGDPALLPSAQGLRVRGRLAELDWDAWQATLKRYGNGDQAASSAAGLLRGADLRIDSFKGFGQELKNLTVDLARQERAWQLVLVSDLASGRLVLPDARGAPIVVDLDRLNLPKSTLPDENKVEDSDPLAAVDPRSLPAVDVKIGQVALGGQPLGAWSLKVRPGSNGVAFNDLDLDLRGLHVNGSLRWDGSPGNTRSTYQGRIEGKNLADVLKAWNFAPSATSERFRMDINGQWPGSPAYMALKRFSGSMDASLRKGQFVEVEGSAQALRVFGLLNFNAINRRLRLDFSDILGKGLSYDRVKGVLSATDGVYVTREPLKLEGPSSNLELNGTLDLAHDRIDAKLLVTLPLTNNLTLAALIVGGPAVGGAVFVVDKLLGDRVSRFASVQYSVKGPWQDPKISFDKPFEKPR | failed
MAEAANKNKPHKLIIDNRNSMSMTGVTKVISIDTDLVLLVTEQGKLKITGKNMQASTLDLDKGILELTGNFNTMVYSGEKEGALSLKSLFK | failed
MAEAKSRVGRPSGDTQNRDKLILAARNLFIERPYAQVSIREIASLAGTDPGLIRYYFGSKEKLFSTMIHETAMPVLAQLHKARRETRQESPAALLQTYYSVMSKHPHFPRLMLRIAGLDQSLPENAEVTKAFYEVVNFENIAIFQRLKDKNLLKDDVDAHCAQLSFFAMMVFPFIVPENLLERVGIELTPDFLQLLAEQNTRLLQRGLMDVKDERDE | not failed
